Test results from US20190382738A1.

T1: B-Raf kinase, P15056
T1 chain: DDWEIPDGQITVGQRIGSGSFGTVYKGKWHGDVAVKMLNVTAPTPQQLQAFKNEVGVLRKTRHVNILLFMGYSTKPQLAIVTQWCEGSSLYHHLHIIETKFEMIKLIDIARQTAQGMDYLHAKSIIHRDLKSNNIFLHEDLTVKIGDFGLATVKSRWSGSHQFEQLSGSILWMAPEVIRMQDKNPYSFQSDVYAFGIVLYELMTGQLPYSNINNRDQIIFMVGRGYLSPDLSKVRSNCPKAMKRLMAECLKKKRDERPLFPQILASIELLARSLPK


Columns and labels:
B-Raf kinase, P15056 [1] = target: T1, B-Raf kinase, P15056; test: intrinsic fluorescence titration, column head Kd (ITF) (µM)
B-Raf kinase, P15056 [2] = target: T1, B-Raf kinase, P15056; test: isothermal titration calorimetry

Row | Kd (B-Raf kinase, P15056 [1]) | ΔS (B-Raf kinase, P15056 [2]) | Binder
1 | 20 nM |  | LRKTRHVNI (modifications not checked) [6257]
2 |  | -28.4 J/mol·K | GVLRKARHVNILLFMGYST (modifications not checked) [Peptide corresponding to SEQ ID NO: 8]
